The source of these data is publication PMC3743950.

The target in assay [1] is DrP5CDHR102A (Deinococcus radiodurans). The experiment in a line: SAXS + other: DLS.
The target in assay [2] is TtP5CDHK104A (Thermus thermophilus HB27). The experiment in a line: DLS.
In assay [3] the target is TtP5CDHR100A (Thermus thermophilus HB27). Nature of the assay: SAXS + other: DLS.
Assay [4] deals with TtP5CDHR100A/K104A/R111A (Thermus thermophilus HB27). The experiment in a line: DLS.
Assay [5] concerns the target TtP5CDHR111A (Thermus thermophilus HB27). Nature of the assay: SAXS + other: DLS.
The target of assay [6] is TtP5CDHR153A (Thermus thermophilus HB27). The experiment in a line: DLS.
Assay [7] deals with Δ1-pyrroline-5-carboxylate dehydrogenase from Bacillus halodurans (Bacillus halodurans). Nature of the assay: SAXS + other: DLS.
Assay [8] has as its target Δ1-pyrroline-5-carboxylate dehydrogenase from Bacillus licheniformis (Bacillus licheniformis). The experiment in a line: DLS.
For assay [9], the target named is Δ1-pyrroline-5-carboxylate dehydrogenase from Deinococcus radiodurans (Deinococcus radiodurans). The experiment in a line: SAXS + other: DLS.
Assay [10] addresses Δ1-pyrroline-5-carboxylate dehydrogenase from Thermus thermophilus (Thermus thermophilus HB27). Nature of the assay: SAXS + other: DLS.

For orientation: stoichiometry N means a count of units in the complex or per binding partner. For the substance DrP5CDHR102A (enzyme), the stoichiometry N in assay [1] was determined as 2. As to TtP5CDHK104A (enzyme), the stoichiometry N in [2] was 6. Regarding TtP5CDHR100A (enzyme), the stoichiometry N in assay [3] is 2. In assay [4], TtP5CDHR100A/K104A/R111A (enzyme) displayed a stoichiometry N of 2. TtP5CDHR111A (enzyme): in [5], the stoichiometry N turned out to be 6. Substance TtP5CDHR153A (enzyme) displayed a stoichiometry N in [6] of 6.

Take “Δ1-pyrroline-5-carboxylate dehydrogenase from Bacillus halodurans (enzyme)”: in assay [7], the stoichiometry N is 2. As for “Δ1-pyrroline-5-carboxylate dehydrogenase from Bacillus licheniformis (enzyme)”, the stoichiometry N in [8] is 2. For the substance “Δ1-pyrroline-5-carboxylate dehydrogenase from Deinococcus radiodurans (enzyme)”, the stoichiometry N in assay [9] came to 6. Consider “Δ1-pyrroline-5-carboxylate dehydrogenase from Thermus thermophilus (enzyme)”, for which the stoichiometry N in assay [10] came to 6.
